Assay results reported in paper PMC8635433 (2021).

T1: coxsackie and adenovirus receptor (CAR), immobilised for SPR (UniProt P78310 20-365)
T1 chain: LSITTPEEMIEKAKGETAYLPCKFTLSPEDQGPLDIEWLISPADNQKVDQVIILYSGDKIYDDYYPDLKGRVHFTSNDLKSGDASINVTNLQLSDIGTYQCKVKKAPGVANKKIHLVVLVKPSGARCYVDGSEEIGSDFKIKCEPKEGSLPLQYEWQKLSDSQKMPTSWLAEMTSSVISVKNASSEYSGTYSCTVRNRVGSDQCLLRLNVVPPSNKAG

T2: CD46, immobilised for SPR (UniProt P15529 35-392)
T2 chain: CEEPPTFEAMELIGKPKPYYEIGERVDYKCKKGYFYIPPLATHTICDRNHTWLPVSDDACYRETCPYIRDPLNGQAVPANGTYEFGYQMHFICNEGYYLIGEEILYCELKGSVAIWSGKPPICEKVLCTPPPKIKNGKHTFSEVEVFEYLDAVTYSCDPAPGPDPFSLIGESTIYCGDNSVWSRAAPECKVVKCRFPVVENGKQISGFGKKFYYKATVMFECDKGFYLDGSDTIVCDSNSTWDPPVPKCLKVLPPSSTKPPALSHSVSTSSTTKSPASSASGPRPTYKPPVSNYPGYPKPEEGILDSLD

B1: HAdV-C5 fiber knob protein (domain or fragment)
chain: TGAITVGNKNNDKLTLWTTPAPSPNCRLNAEKDAKLTLVLTKCGSQILATVSVLAVKGSLAPISGTVQSAHLIIRFDENGVLLNNSFLDPEYWNFRNGDLTEGTAYTNAVGFMPNLSAYPKSHGKTAKSNIVSQVYLNGDKTKPVTLTITLNGTQETGDTTPSAYSMSFSWDWSGHNYINEIFATSSYTFSYIAQE
B2: HAdV-B35 fiber knob protein (domain or fragment)
chain: FNNGDICIKDSINTLWTGINPPPNCQIVENTNTNDGKLTLVLVKNGGLVNGYVSLVGVSDTVNQMFTQKTANIQLRLYFDSSGNLLTEESDLKIPLKNKSSTATSETVASSKAFMPSTTAYPFNTTTRDSENYIHGICYYMTSYDRSLFPLNISIMLNSRMISSNVAYAIQFEWNLNASESPESNIATLTTSPFFFSYITEDDN
B3: ChAdOx1 fiber knob protein (domain or fragment)
chain: GALTAGNKEDDKLTLWTTPDPSPNCQLLSDRDAKFTLCLTKCGSQILGTVAVAAVTVGSALNPINDTVKSAIVFLRFDSDGVLMSNSSMVGDYWNFREGQTTQSVAYTNAVGFMPNLGAYPKTQSKTPKNSIVSQVYLNGETTMPMTLTITFNGTDEKDTTPVSTYSMTFTWQWTGDYKDKNITFATNSFTFSYMAQE

Legend:
Experiment in all cases: SPR
[1] = target: T1, coxsackie and adenovirus receptor …
[2] = target: T2, CD46, immobilised for SPR
[3] = target: T2, CD46, immobilised for SPR

Row | Binder | koff [1] | koff [2] | Kd [3]
1 | B1 | 0.000109 s⁻¹ | – | –
2 | B2 | – | 0.000994 s⁻¹ | 4.38 nM
3 | B3 | 0.00018 s⁻¹ | – | –
